Experimental data reported in patent publication US20060246095A1, “Multiepitope polypeptides for cancer immunotherapy” (HADASIT MEDICAL RESEARCH SERVICES & DEVELOPMENT LTD., priority 2003, published 2006).

Experiments:
Assay type in all cases: cell-based, human
[1] = tested on: T cell clone HT 2D9 (A2 restricted gp100 epitope 280-288); test: Recognition assay with proteasome inhibition (IFN-γ release ELISA), clone HT 2D9; conditions: transfected DC
Protocol: (§1) Dendritic cells were isolated from cytopheresis MNCs of melanoma patients with the HLA haplotypes HIA-A*0201 and HLA-DRβ1*0401. DC were generated from plastic adherent PBMCs cultured in RPMI with 10% human AB-serum, L-glutamine, penicillin-streptomycin, supplemented with GM-CSF 1000 IU/ml and IL-4 1000 IU/ml. By day 6, immature DC were harvested for electroporation.
(§2) 2.5-3×10^6 DC were re-suspended in 100 μl nucleofector solution and added to 5 μg of DNA plasmid in 2-mm electrode gap cuvettes. Transfected DC were immediately plated with CM containing GM/IL4 or let mature using TNFα 100 ng/ml and PGE2 1000 ng/ml. GFP-transfected DCs were collected 16-24 hours later for FACS analysis.
HT 2D9 which reacts with A2 restricted gp100 epitope 280-288.
(§3) T cell clones were co-incubated with DC in flat 96-well plate for 24 hours. DC were plated immediately after their transfection or pulsing in 6 separated plates, in the presence of GM CSF and IL-4. 1×10^5 T cells were added to 1×10^5 pulsed or transfected DC. In the longitudinal study, T cell clones were added to the transfected/pulsed DC at the following time points: T0=immediately, +12=after 12 hours, 24, 36, 48 and 72 hours. Supernatants were collected after overnight incubation. Interferon gamma release assay was performed to evaluate T cell stimulation using the ELISA method, results are presented in pg/ml.
(§4) Lactacystin was added to DC at concentrations of 25 μM and 50 μM, 4 hours post transfection. DC were incubated with lactacystin for 70 minutes and then washed twice.
(§5) Responding T cells were added after washing the lactacystin and co-incubated. Supernatents were collected after 20 hours.
Control DC were transfected and incubated with responder T cell clones within the same time frame, without lactacystin. […]

[2] = tested on: T cell clone CK3H6 (A2 restricted gp100 epitope 209-217); test: Recognition assay for peptide presentation by DC (IFN-γ release ELISA), T cell clone CK3H6; conditions: CK3H6
Protocol: as §1, §2
(§6) DC were pulsed with 1 μg/ml of the relevant peptides at 1×10^6 cells/ml. Stimulants were added after 1 hour incubation without washing the peptide.
CK3H6 which recognizes the A2 restricted gp100 epitope 209-217.
as §3, §4, §5
(§7) For recognition assay of DC epitope presentation, 1×10^5 cells from different T cell clones, that were grown from PBMCs of patients, and were restricted to particular melanoma antigen peptides, were co-incubated with 1×10^5 pulsed or transfected DC, in the presence of GM-CSF and IL-4. T cell clones were added to the transfected/pulsed DC at the following time points: T=0 immediately, T=12, 24, 36, 48, 72 hours. Supernatant was collected after overnight incubation and was subjected to interferon gamma release assay, in order to evaluate the specific T cell activity towards the particular peptide presented by the DC cells.
(§8) The results shown in the following tables represent the amount of Interferon-γ (pg/ml) secreted to the culture medium as an index for T cell stimulation.

[3] = tested on: TIL 1940 (A2 restricted MART-1 epitope 27-35); test: Recognition assay for peptide presentation by DC (IFN-γ release ELISA), TIL 1940
Protocol: as §1, §2, §6
TIL 1940 which recognizes the A2 restricted MART-1 epitope 27-35.
as §3, §4, §5, §7, §8

[4] = tested on: T cell clone RB-154 (gp100 154-162 peptide); test: Recognition assay for peptide presentation by DC (IFN-γ release ELISA), clone RB-154; conditions: T = 0 hours, RB-154
Protocol: as §1, §2, §6
T cell clones were co-incubated with DC in flat 96-well plate for 24 hours. DC were plated immediately after their transfection or pulsing in 6 separated plates, in the presence of GM CSF and IL-4. 1×10^5 T cells were added to 1×10^5 pulsed or transfected DC. In the longitudinal study, T cell clones were added to the transfected/pulsed DC at the following time points: T0=immediately, +12=after 12 hours, 24, 36, 48 and 72 hours. Supernatants were collected after overnight incubation. […]

[5] = tested on: DC with CM (no T cell clone); test: Recognition assay, CM in place of a T cell clone (IFN-γ background of DC); conditions: CM instead of T cell clone
Protocol: as §1, §2, §6, §3, §7, §8

[6] = tested on: T cell clone BR-B8 (DR4-restricted gp100 epitope 44-59); test: Recognition assay for peptide presentation by DC (IFN-γ release ELISA), clone BR-B8; conditions: transfected DC, BR-B8
Protocol: as §1, §2
pcDNA-MEP and pcDNA-gp100 were co-transfected to detect Class II antigen presentation as an internal control.
BR-B8 which recognizes the DR4-restricted gp100 epitope 44-59.
as §3, §4, §5
For recognition assay of DC epitope presentation, 1×10^5 cells from different T cell clones, that were grown from PBMCs of patients, and were restricted to particular melanoma antigen peptides, were co-incubated with 1×10^5 pulsed or transfected DC, in the presence of GM-CSF and IL-4. […]

[7] = transfected DC, Lactacystin 25 μM
[8] = transfected DC, Lactacystin 50 μM
[9] = transfected or peptide-pulsed DC, Donor 1, T = 12 hours
[10] = transfected or peptide-pulsed DC, Donor 1, T = 48 hours
[11] = transfected or peptide-pulsed DC, Donor 1, T = 72 hours
[12] = transfected or peptide-pulsed DC, Donor 2, T = 12 hours
[13] = transfected or peptide-pulsed DC, Donor 2, T = 24 hours
[14] = transfected or peptide-pulsed DC, Donor 2, T = 36 hours
[15] = transfected or peptide-pulsed DC, Donor 2, T = 48 hours
[16] = transfected or peptide-pulsed DC, Donor 2, T = 72 hours

B1: MEP-mel: melanoma multiepitope polypeptide, SEQ ID NO: 2 or 57; in Tables 2-9 delivered by transfecting DC with pcDNA3-MEP-Mel plasmid (protein)
chain: PGTMGSCRKSYYLEPGPVTVRKSYLIMDQVPFSVRKSYLYMDGTMSQVRKSYLAGIGILTVRKSYYLEPGPVTVALLIMDQVPFSVALLYMDGTMSQVALLLAGIGILTVSSLYLEPGPVTVAAYIMDQVPFSVSSLYMDGTMSQVAAYLAGIGILTV
[1]; Lactacystin 0
  Interferon-γ secreted to the culture medium: 1642 pg/mL
[1]; Lactacystin 25 μM
  Interferon-γ secreted to the culture medium: 244 pg/mL
[1]; Lactacystin 50 μM
  Interferon-γ secreted to the culture medium: 56 pg/mL
[2]; transfected DC from donor 1, T = 0 hours
  Interferon-γ secreted to the culture medium: >2000 pg/mL
[2]; transfected DC from donor 2, T = 0 hours
  Interferon-γ secreted to the culture medium: >2000 pg/mL
[2]; transfected DC, Lactacystin 0
  Interferon-γ secreted to the culture medium: 705 pg/mL
[2]; [7]
  Interferon-γ secreted to the culture medium: 73 pg/mL
[2]; [8]
  Interferon-γ secreted to the culture medium: 36 pg/mL
[2]; [9]
  Interferon-γ secreted to the culture medium: >2000 pg/mL
[2]; transfected or peptide-pulsed DC, Donor 1, T = 24 hours
  Interferon-γ secreted to the culture medium: >2000 pg/mL
[2]; transfected or peptide-pulsed DC, Donor 1, T = 36 hours
  Interferon-γ secreted to the culture medium: >2000 pg/mL
[2]; [10]
  Interferon-γ secreted to the culture medium: >2000 pg/mL
[2]; [11]
  Interferon-γ secreted to the culture medium: 1808 pg/mL
[2]; [12]
  Interferon-γ secreted to the culture medium: >2000 pg/mL
[2]; [13]
  Interferon-γ secreted to the culture medium: >2000 pg/mL
[2]; [14]
  Interferon-γ secreted to the culture medium: >2000 pg/mL
[2]; [15]
  Interferon-γ secreted to the culture medium: >2000 pg/mL
[2]; [16]
  Interferon-γ secreted to the culture medium: 1328 pg/mL
[3]; transfected DC from donor 1, T = 0 hours, TIL 1940
  Interferon-γ secreted to the culture medium: >2000 pg/mL
[3]; transfected DC from donor 2, T = 0 hours, TIL 1940
  Interferon-γ secreted to the culture medium: >2000 pg/mL
[3]; transfected DC, Lactacystin 0, TIL1941
  Interferon-γ secreted to the culture medium: 432 pg/mL
[3]; transfected DC, Lactacystin 25 μM, TIL1941
  Interferon-γ secreted to the culture medium: 62 pg/mL
[3]; transfected DC, Lactacystin 50 μM, TIL1941
  Interferon-γ secreted to the culture medium: 45 pg/mL
[3]; transfected or peptide-pulsed DC, Donor 1, T = 12 hours, TIL 1940
  Interferon-γ secreted to the culture medium: >2000 pg/mL
[3]; transfected or peptide-pulsed DC, Donor 1, T = 24 hours, TIL 1940
  Interferon-γ secreted to the culture medium: >2000 pg/mL
[3]; transfected or peptide-pulsed DC, Donor 1, T = 36 hours, TIL 1940
  Interferon-γ secreted to the culture medium: >2000 pg/mL
[3]; transfected or peptide-pulsed DC, Donor 1, T = 48 hours, TIL 1940
  Interferon-γ secreted to the culture medium: >2000 pg/mL
[3]; transfected or peptide-pulsed DC, Donor 1, T = 72 hours, TIL 1940
  Interferon-γ secreted to the culture medium: >2000 pg/mL
[3]; transfected or peptide-pulsed DC, Donor 2, T = 12 hours, TIL 1940
  Interferon-γ secreted to the culture medium: >2000 pg/mL
[3]; transfected or peptide-pulsed DC, Donor 2, T = 24 hours, TIL 1940
  Interferon-γ secreted to the culture medium: >2000 pg/mL
[3]; transfected or peptide-pulsed DC, Donor 2, T = 36 hours, TIL 1940
  Interferon-γ secreted to the culture medium: >2000 pg/mL
[3]; transfected or peptide-pulsed DC, Donor 2, T = 48 hours, TIL 1940
  Interferon-γ secreted to the culture medium: >2000 pg/mL
[3]; transfected or peptide-pulsed DC, Donor 2, T = 72 hours, TIL 1940
  Interferon-γ secreted to the culture medium: >2000 pg/mL
[4]; transfected DC from donor 1
  Interferon-γ secreted to the culture medium: 66 pg/mL
[4]; transfected DC from donor 2
  Interferon-γ secreted to the culture medium: 132 pg/mL
[5]; transfected DC, Donor 1, T = 24 hours
  Interferon-γ secreted to the culture medium: 94 pg/mL
[5]; transfected DC, Donor 1, T = 36 hours
  Interferon-γ secreted to the culture medium: 102 pg/mL
[5]; transfected DC, Lactacystin 0
  Interferon-γ secreted to the culture medium: 5 pg/mL
[5]; [7]
  Interferon-γ secreted to the culture medium: 0 pg/mL
[5]; [8]
  Interferon-γ secreted to the culture medium: 51 pg/mL
[5]; [9]
  Interferon-γ secreted to the culture medium: 120 pg/mL
[5]; [10]
  Interferon-γ secreted to the culture medium: 33 pg/mL
[5]; [11]
  Interferon-γ secreted to the culture medium: 18 pg/mL
[5]; [12]
  Interferon-γ secreted to the culture medium: 248 pg/mL
[5]; [13]
  Interferon-γ secreted to the culture medium: 292 pg/mL
[5]; [14]
  Interferon-γ secreted to the culture medium: 191 pg/mL
[5]; [15]
  Interferon-γ secreted to the culture medium: 260 pg/mL
[5]; [16]
  Interferon-γ secreted to the culture medium: 38 pg/mL
[6]; Lactacystin 0
  Interferon-γ secreted to the culture medium: 188 pg/mL
[6]; Lactacystin 25 μM
  Interferon-γ secreted to the culture medium: 85 pg/mL
[6]; Lactacystin 50 μM
  Interferon-γ secreted to the culture medium: 16 pg/mL
